# According to article PMC7325863 (Neurobiology of aging, 2019):
# B1: Synaptotagmin 1 (natural protein)
# chain: MVSASRPEALAAPVTTVATLVPHNATEPASPGEGKEDAFSKLKQKFMNELHKIPLPPWALIAIAIVAVLLVVTCCFCVCKKCLFKKKNKKKGKEKGGKNAINMKDVKDLGKTMKDQALKDDDAETGLTDGEEKEEPKEEEKLGKLQYSLDYDFQNNQLLVGIIQAAELPALDMGGTSDPYVKVFLLPDKKKKFETKVHRKTLNPVFNEQFTFKVPYSELGGKTLVMAVYDFDRFSKHDIIGEFKVPMNTVDFGHVTEEWRDLQSAEKEEQEKLGDICFSLRYVPTAGKLTVVILEAKNLKKMDVGGLSDPYVKIHLMQNGKRLKKKKTTIKKNTLNPYYNESFSFEVPFEQIQKVQVVVTVLDYDKIGKNDAIGKVFVGYNSTGAELRHWSDMLANPRRPIAQWHTLQVEEEVDAMLAVKK
# Target: Presenilin 1 (mouse (endogenous in primary neurons of …, UniProt P49769 1-467))
# Test: co-IP
binder,measurement,value
B1,"fold change of co-precipitated Syt-1/PS1, old against young neurons (-KCl)",1.79 fold
